Measured values reported in the supplement of paper PMC9112550, “Optimization of the antimicrobial peptide Bac7 by deep mutational scanning” (BMC Biology, 2022).

Tested on: Escherichia coli TOP10
Assay: shrunken log2 fold change of peptide-encoding DNA abundance (4.5 h post-induction vs induction); higher = less antimicrobial activity (less host growth inhibition)
Details: time post-induction: 4.5 h; library: site-saturation at positions 5, 18, 19, 20
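Further: peptides expressed intracellularly from a pBAD plasmid library in pooled LB shake-flask culture, induced with 0.3% L-arabinose, DNA abundance read by NGS, three biological replicates, DESeq2 with apeglm shrinkage.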

RRIRRRPPRLPRPRPRPGMDPRP and RRIRNRPPRLPRPRPRPIREPRP are within 0.2 log units of each other in “shrunken log2 fold change” value: 0.0814 for the first, -0.0204 for the second.

RRIRSRPPRLPRPRPRPVDCPRP and RRIRQRPPRLPRPRPRPMPEPRP are within 0.2 log units of each other in “shrunken log2 fold change” value: -0.12 for the first, -0.237 for the second.

Compared with RRIRVRPPRLPRPRPRPGRQPRP, RRIRFRPPRLPRPRPRPAIKPRP is lower in “shrunken log2 fold change” value: 0.0976 for the first, -0.328 for the second.

First: RRIRKRPPRLPRPRPRPNPMPRP
Second: RRIRRRPPRLPRPRPRPIDDPRP
The “shrunken log2 fold change” value of the first is higher: 0.459 for the first, -0.128 for the second.

Going from RRIRWRPPRLPRPRPRPALEPRP to RRIRWRPPRLPRPRPRPKPQPRP, the “shrunken log2 fold change” value falls from 0.939 to 0.391.

Compared with RRIRKRPPRLPRPRPRPMTRPRP, RRIRCRPPRLPRPRPRPHHPPRP is lower in “shrunken log2 fold change” value: 0.872 for the first, -0.37 for the second.

Compared with RRIRFRPPRLPRPRPRPHCIPRP, RRIRRRPPRLPRPRPRPSEIPRP is higher in “shrunken log2 fold change” value: -0.457 for the first, 0.0269 for the second.

First: RRIRARPPRLPRPRPRPDFAPRP
Second: RRIRHRPPRLPRPRPRPHYWPRP
The “shrunken log2 fold change” value of the first is higher: 0.533 for the first, -0.588 for the second.

First: RRIRPRPPRLPRPRPRPWARPRP
Second: RRIRGRPPRLPRPRPRPKTPPRP
The “shrunken log2 fold change” value of the first is lower: 0.0379 for the first, 1.73 for the second.

RRIRWRPPRLPRPRPRPYHRPRP and RRIRERPPRLPRPRPRPILWPRP are within 0.2 log units of each other in “shrunken log2 fold change” value: -0.201 for the first, -0.161 for the second.

Compared with RRIRNRPPRLPRPRPRPWWWPRP, RRIRERPPRLPRPRPRPVICPRP is lower in “shrunken log2 fold change” value: 0.373 for the first, -0.72 for the second.

RRIRSRPPRLPRPRPRPFYQPRP and RRIRERPPRLPRPRPRPLTTPRP are within 0.2 log units of each other in “shrunken log2 fold change” value: -0.308 for the first, -0.395 for the second.

RRIRYRPPRLPRPRPRPSPTPRP and RRIRHRPPRLPRPRPRPFKVPRP are within 0.2 log units of each other in “shrunken log2 fold change” value: -0.167 for the first, -0.0904 for the second.

First: RRIRYRPPRLPRPRPRPRMTPRP
Second: RRIRRRPPRLPRPRPRPYFHPRP
The “shrunken log2 fold change” value of the first is higher: -0.131 for the first, -0.387 for the second.

RRIRDRPPRLPRPRPRPRTHPRP and RRIRCRPPRLPRPRPRPHWFPRP are within 0.2 log units of each other in “shrunken log2 fold change” value: -0.188 for the first, -0.0681 for the second.

First: RRIRVRPPRLPRPRPRPLVLPRP
Second: RRIRCRPPRLPRPRPRPLHWPRP
The “shrunken log2 fold change” value of the first is lower: -0.122 for the first, 0.467 for the second.

RRIRLRPPRLPRPRPRPGYCPRP and RRIRPRPPRLPRPRPRPHIAPRP are within 0.2 log units of each other in “shrunken log2 fold change” value: -0.416 for the first, -0.392 for the second.

First: RRIRERPPRLPRPRPRPPCGPRP
Second: RRIRPRPPRLPRPRPRPCAKPRP
The “shrunken log2 fold change” value of the first is higher: 0.259 for the first, -0.0518 for the second.

First: RRIRSRPPRLPRPRPRPSGSPRP
Second: RRIRKRPPRLPRPRPRPQEDPRP
The “shrunken log2 fold change” value of the first is lower: -0.151 for the first, 0.0977 for the second.

First: RRIRCRPPRLPRPRPRPFAYPRP
Second: RRIRQRPPRLPRPRPRPNNRPRP
The “shrunken log2 fold change” value of the first is higher: 0.00718 for the first, -0.686 for the second.

RRIRVRPPRLPRPRPRPLNDPRP and RRIRVRPPRLPRPRPRPWCGPRP are within 0.2 log units of each other in “shrunken log2 fold change” value: 0.171 for the first, 0.0506 for the second.

Compared with RRIRPRPPRLPRPRPRPQTKPRP, RRIRGRPPRLPRPRPRPKKRPRP is higher in “shrunken log2 fold change” value: -0.0309 for the first, 0.817 for the second.

First: RRIRCRPPRLPRPRPRPFFAPRP
Second: RRIRYRPPRLPRPRPRPISWPRP
The “shrunken log2 fold change” value of the first is higher: 0.216 for the first, -0.0102 for the second.

Going from RRIRPRPPRLPRPRPRPILPPRP to RRIRQRPPRLPRPRPRPVNQPRP, the “shrunken log2 fold change” value falls from 0.198 to -0.0686.

RRIRDRPPRLPRPRPRPTQCPRP and RRIRQRPPRLPRPRPRPVCHPRP are within 0.2 log units of each other in “shrunken log2 fold change” value: -0.0857 for the first, -0.13 for the second.

First: RRIRLRPPRLPRPRPRPPQGPRP
Second: RRIRARPPRLPRPRPRPRPTPRP
The “shrunken log2 fold change” value of the first is higher: 1.27 for the first, 0.867 for the second.

RRIRCRPPRLPRPRPRPHAHPRP and RRIRIRPPRLPRPRPRPWWVPRP are within 0.2 log units of each other in “shrunken log2 fold change” value: -0.182 for the first, -0.077 for the second.

Compared with RRIRCRPPRLPRPRPRPNTLPRP, RRIRHRPPRLPRPRPRPANIPRP is higher in “shrunken log2 fold change” value: -0.535 for the first, -0.291 for the second.

RRIRRRPPRLPRPRPRPWRFPRP and RRIRGRPPRLPRPRPRPSEHPRP are within 0.2 log units of each other in “shrunken log2 fold change” value: 0.012 for the first, 0.149 for the second.

Compared with RRIRCRPPRLPRPRPRPQNKPRP, RRIRERPPRLPRPRPRPQERPRP is higher in “shrunken log2 fold change” value: -0.526 for the first, 0.061 for the second.

Compared with RRIRERPPRLPRPRPRPRWNPRP, RRIRLRPPRLPRPRPRPVNHPRP is higher in “shrunken log2 fold change” value: -0.0995 for the first, 0.197 for the second.

RRIRTRPPRLPRPRPRPCRCPRP and RRIRFRPPRLPRPRPRPIPVPRP are within 0.2 log units of each other in “shrunken log2 fold change” value: -0.00986 for the first, 0.0949 for the second.

RRIRRRPPRLPRPRPRPTINPRP and RRIRDRPPRLPRPRPRPWDYPRP are within 0.2 log units of each other in “shrunken log2 fold change” value: -0.134 for the first, -0.00965 for the second.

First: RRIRSRPPRLPRPRPRPKKKPRP
Second: RRIRFRPPRLPRPRPRPQDEPRP
The “shrunken log2 fold change” value of the first is higher: 0.195 for the first, -0.0187 for the second.

Going from RRIRIRPPRLPRPRPRPHEHPRP to RRIRQRPPRLPRPRPRPSTIPRP, the “shrunken log2 fold change” value rises from -0.405 to -0.0567.

Going from RRIRVRPPRLPRPRPRPACEPRP to RRIRVRPPRLPRPRPRPLFGPRP, the “shrunken log2 fold change” value falls from 0.165 to -0.104.

RRIRRRPPRLPRPRPRPTCNPRP and RRIRWRPPRLPRPRPRPDKNPRP are within 0.2 log units of each other in “shrunken log2 fold change” value: 0.026 for the first, 0.142 for the second.

Going from RRIRLRPPRLPRPRPRPMVCPRP to RRIRPRPPRLPRPRPRPHCTPRP, the “shrunken log2 fold change” value falls from -0.0634 to -0.479.

RRIRIRPPRLPRPRPRPSMEPRP and RRIRYRPPRLPRPRPRPNEFPRP are within 0.2 log units of each other in “shrunken log2 fold change” value: -0.343 for the first, -0.498 for the second.

Compared with RRIRGRPPRLPRPRPRPAFYPRP, RRIRKRPPRLPRPRPRPWTGPRP is lower in “shrunken log2 fold change” value: 0.178 for the first, -0.0587 for the second.

First: RRIRNRPPRLPRPRPRPIEAPRP
Second: RRIRKRPPRLPRPRPRPAYHPRP
The “shrunken log2 fold change” value of the first is higher: 0.0895 for the first, -0.144 for the second.

Going from RRIRDRPPRLPRPRPRPNFVPRP to RRIRQRPPRLPRPRPRPKNWPRP, the “shrunken log2 fold change” value rises from -0.0655 to 0.139.

Going from RRIRVRPPRLPRPRPRPPSPPRP to RRIRVRPPRLPRPRPRPYGQPRP, the “shrunken log2 fold change” value falls from 0.417 to -0.0728.

RRIRERPPRLPRPRPRPAPGPRP and RRIRRRPPRLPRPRPRPRSKPRP are within 0.2 log units of each other in “shrunken log2 fold change” value: 0.325 for the first, 0.29 for the second.

RRIRVRPPRLPRPRPRPRLLPRP and RRIRMRPPRLPRPRPRPFMWPRP are within 0.2 log units of each other in “shrunken log2 fold change” value: 0.0401 for the first, -0.128 for the second.

RRIRIRPPRLPRPRPRPPPSPRP and RRIRVRPPRLPRPRPRPPDAPRP are within 0.2 log units of each other in “shrunken log2 fold change” value: 0.399 for the first, 0.254 for the second.

RRIRLRPPRLPRPRPRPLSEPRP and RRIRIRPPRLPRPRPRPTDEPRP are within 0.2 log units of each other in “shrunken log2 fold change” value: 0.0386 for the first, 0.125 for the second.

Compared with RRIRYRPPRLPRPRPRPNAHPRP, RRIRERPPRLPRPRPRPPRPPRP is higher in “shrunken log2 fold change” value: -0.395 for the first, 0.64 for the second.

Going from RRIRCRPPRLPRPRPRPPMVPRP to RRIRRRPPRLPRPRPRPEGIPRP, the “shrunken log2 fold change” value rises from -0.147 to 0.252.

Going from RRIRYRPPRLPRPRPRPCPGPRP to RRIRSRPPRLPRPRPRPKYMPRP, the “shrunken log2 fold change” value falls from -0.0926 to -0.677.

RRIRFRPPRLPRPRPRPITTPRP and RRIRTRPPRLPRPRPRPLSGPRP are within 0.2 log units of each other in “shrunken log2 fold change” value: -0.198 for the first, -0.0581 for the second.

Compared with RRIRGRPPRLPRPRPRPPDSPRP, RRIRGRPPRLPRPRPRPRRLPRP is lower in “shrunken log2 fold change” value: 0.952 for the first, 0.502 for the second.

Compared with RRIRFRPPRLPRPRPRPAERPRP, RRIRGRPPRLPRPRPRPAQPPRP is higher in “shrunken log2 fold change” value: 0.0603 for the first, 0.377 for the second.

RRIRPRPPRLPRPRPRPCRWPRP and RRIRHRPPRLPRPRPRPETNPRP are within 0.2 log units of each other in “shrunken log2 fold change” value: 0.0987 for the first, 0.0688 for the second.

Compared with RRIRIRPPRLPRPRPRPFYLPRP, RRIRGRPPRLPRPRPRPSDFPRP is higher in “shrunken log2 fold change” value: -0.882 for the first, 0.0231 for the second.

RRIRPRPPRLPRPRPRPLMHPRP and RRIRYRPPRLPRPRPRPGKVPRP are within 0.2 log units of each other in “shrunken log2 fold change” value: -0.0913 for the first, -0.204 for the second.

RRIRSRPPRLPRPRPRPWSMPRP and RRIRQRPPRLPRPRPRPCDLPRP are within 0.2 log units of each other in “shrunken log2 fold change” value: -0.176 for the first, -0.265 for the second.

RRIRGRPPRLPRPRPRPWPVPRP and RRIRDRPPRLPRPRPRPCVMPRP are within 0.2 log units of each other in “shrunken log2 fold change” value: 0.674 for the first, 0.543 for the second.

Compared with RRIRKRPPRLPRPRPRPLWMPRP, RRIRTRPPRLPRPRPRPDQGPRP is higher in “shrunken log2 fold change” value: -0.0285 for the first, 0.23 for the second.

RRIRFRPPRLPRPRPRPWIKPRP and RRIRTRPPRLPRPRPRPNGRPRP are within 0.2 log units of each other in “shrunken log2 fold change” value: -0.187 for the first, -0.0231 for the second.

First: RRIRQRPPRLPRPRPRPHDKPRP
Second: RRIRERPPRLPRPRPRPVGWPRP
The “shrunken log2 fold change” value of the first is lower: -0.773 for the first, 0.888 for the second.

Going from RRIRARPPRLPRPRPRPAHCPRP to RRIRERPPRLPRPRPRPADSPRP, the “shrunken log2 fold change” value falls from 0.433 to -0.157.

For RRIRIRPPRLPRPRPRPFVDPRP, the “shrunken log2 fold change” value was -0.65.
